Reference: patent publication US20120213763A1 (COUNCIL OF SCIENTIFIC AND INDUSTRIAL RESEARCH, published 2012)

B1: PEGylated SK S105C (SEQ ID NO 33) (other)
chain: IAGPEWLLDRPSVNNSQLVVSVAGTVEGTNQDISLKFFEIDLTSRPAHGGKTEQGLSPKSKPFATDSGAMSHKLEKADLLKAIQEQLIANVHSNDDYFEVIDFACDATITDRNGKVYFADKDGSVTLPTQPVQEFLLSGHVRVRPYKEKPIQNQAKSVDVEYTVQFTPLNPDDDFRPGLKDTKLLKTLAIGDTITSQELLAQAQSILNKNHPGYTIYERDSSIVTHDNDIFRTILPMDQEFTYRVKNREQAYRINKKSGLNEEINNTDLISEKYYVLKKGEKPYDPFDRSHLKLFTIKYVDVDTNELLKSEQLLTASERNLDFRDLYDPRDKAKLLYNNLDAFGIMDYTLTGKVEDNHDDTNRIITVYMGKRPEGENASYHLAYDKDRYTEEEREVYSYLRYTGTPIPDNPNDK
modifications: PEG (thiol-reactive methoxy-PEG maleimide) on Cys 105
B2: PEGylated SK N255C (SEQ ID NO 46) (other)
chain: IAGPEWLLDRPSVNNSQLVVSVAGTVEGTNQDISLKFFEIDLTSRPAHGGKTEQGLSPKSKPFATDSGAMSHKLEKADLLKAIQEQLIANVHSNDDYFEVIDFASDATITDRNGKVYFADKDGSVTLPTQPVQEFLLSGHVRVRPYKEKPIQNQAKSVDVEYTVQFTPLNPDDDFRPGLKDTKLLKTLAIGDTITSQELLAQAQSILNKNHPGYTIYERDSSIVTHDNDIFRTILPMDQEFTYRVKNREQAYRICKKSGLNEEINNTDLISEKYYVLKKGEKPYDPFDRSHLKLFTIKYVDVDTNELLKSEQLLTASERNLDFRDLYDPRDKAKLLYNNLDAFGIMDYTLTGKVEDNHDDTNRIITVYMGKRPEGENASYHLAYDKDRYTEEEREVYSYLRYTGTPIPDNPNDK
modifications: PEG (thiol-reactive methoxy-PEG maleimide) on Cys 255
B3: PEGylated SK D173C (SEQ ID NO 39) (other)
chain: IAGPEWLLDRPSVNNSQLVVSVAGTVEGTNQDISLKFFEIDLTSRPAHGGKTEQGLSPKSKPFATDSGAMSHKLEKADLLKAIQEQLIANVHSNDDYFEVIDFASDATITDRNGKVYFADKDGSVTLPTQPVQEFLLSGHVRVRPYKEKPIQNQAKSVDVEYTVQFTPLNPDCDFRPGLKDTKLLKTLAIGDTITSQELLAQAQSILNKNHPGYTIYERDSSIVTHDNDIFRTILPMDQEFTYRVKNREQAYRINKKSGLNEEINNTDLISEKYYVLKKGEKPYDPFDRSHLKLFTIKYVDVDTNELLKSEQLLTASERNLDFRDLYDPRDKAKLLYNNLDAFGIMDYTLTGKVEDNHDDTNRIITVYMGKRPEGENASYHLAYDKDRYTEEEREVYSYLRYTGTPIPDNPNDK
modifications: PEG (thiol-reactive methoxy-PEG maleimide) on Cys 173
B4: PEGylated SK L179C (SEQ ID NO 41) (other)
chain: IAGPEWLLDRPSVNNSQLVVSVAGTVEGTNQDISLKFFEIDLTSRPAHGGKTEQGLSPKSKPFATDSGAMSHKLEKADLLKAIQEQLIANVHSNDDYFEVIDFASDATITDRNGKVYFADKDGSVTLPTQPVQEFLLSGHVRVRPYKEKPIQNQAKSVDVEYTVQFTPLNPDDDFRPGCKDTKLLKTLAIGDTITSQELLAQAQSILNKNHPGYTIYERDSSIVTHDNDIFRTILPMDQEFTYRVKNREQAYRINKKSGLNEEINNTDLISEKYYVLKKGEKPYDPFDRSHLKLFTIKYVDVDTNELLKSEQLLTASERNLDFRDLYDPRDKAKLLYNNLDAFGIMDYTLTGKVEDNHDDTNRIITVYMGKRPEGENASYHLAYDKDRYTEEEREVYSYLRYTGTPIPDNPNDK
modifications: PEG (thiol-reactive methoxy-PEG maleimide) on Cys 179
B5: PEGylated SK Lys 257 Cys (SEQ ID NO 48) (other)
chain: IAGPEWLLDRPSVNNSQLVVSVAGTVEGTNQDISLKFFEIDLTSRPAHGGKTEQGLSPKSKPFATDSGAMSHKLEKADLLKAIQEQLIANVHSNDDYFEVIDFASDATITDRNGKVYFADKDGSVTLPTQPVQEFLLSGHVRVRPYKEKPIQNQAKSVDVEYTVQFTPLNPDDDFRPGLKDTKLLKTLAIGDTITSQELLAQAQSILNKNHPGYTIYERDSSIVTHDNDIFRTILPMDQEFTYRVKNREQAYRINKCSGLNEEINNTDLISEKYYVLKKGEKPYDPFDRSHLKLFTIKYVDVDTNELLKSEQLLTASERNLDFRDLYDPRDKAKLLYNNLDAFGIMDYTLTGKVEDNHDDTNRIITVYMGKRPEGENASYHLAYDKDRYTEEEREVYSYLRYTGTPIPDNPNDK
modifications: PEG (thiol-reactive methoxy-PEG maleimide) on Cys 257
B6: PEGylated SK D96C (SEQ ID NO 31) (other)
chain: IAGPEWLLDRPSVNNSQLVVSVAGTVEGTNQDISLKFFEIDLTSRPAHGGKTEQGLSPKSKPFATDSGAMSHKLEKADLLKAIQEQLIANVHSNDCYFEVIDFASDATITDRNGKVYFADKDGSVTLPTQPVQEFLLSGHVRVRPYKEKPIQNQAKSVDVEYTVQFTPLNPDDDFRPGLKDTKLLKTLAIGDTITSQELLAQAQSILNKNHPGYTIYERDSSIVTHDNDIFRTILPMDQEFTYRVKNREQAYRINKKSGLNEEINNTDLISEKYYVLKKGEKPYDPFDRSHLKLFTIKYVDVDTNELLKSEQLLTASERNLDFRDLYDPRDKAKLLYNNLDAFGIMDYTLTGKVEDNHDDTNRIITVYMGKRPEGENASYHLAYDKDRYTEEEREVYSYLRYTGTPIPDNPNDK
modifications: PEG (thiol-reactive methoxy-PEG maleimide) on Cys 96
B7: PEGylated SK D95C (SEQ ID NO 30) (other)
chain: IAGPEWLLDRPSVNNSQLVVSVAGTVEGTNQDISLKFFEIDLTSRPAHGGKTEQGLSPKSKPFATDSGAMSHKLEKADLLKAIQEQLIANVHSNCDYFEVIDFASDATITDRNGKVYFADKDGSVTLPTQPVQEFLLSGHVRVRPYKEKPIQNQAKSVDVEYTVQFTPLNPDDDFRPGLKDTKLLKTLAIGDTITSQELLAQAQSILNKNHPGYTIYERDSSIVTHDNDIFRTILPMDQEFTYRVKNREQAYRINKKSGLNEEINNTDLISEKYYVLKKGEKPYDPFDRSHLKLFTIKYVDVDTNELLKSEQLLTASERNLDFRDLYDPRDKAKLLYNNLDAFGIMDYTLTGKVEDNHDDTNRIITVYMGKRPEGENASYHLAYDKDRYTEEEREVYSYLRYTGTPIPDNPNDK
modifications: PEG (thiol-reactive methoxy-PEG maleimide) on Cys 95
B8: PEGylated SK Ser 258 Cys (SEQ ID NO 49) (other)
chain: IAGPEWLLDRPSVNNSQLVVSVAGTVEGTNQDISLKFFEIDLTSRPAHGGKTEQGLSPKSKPFATDSGAMSHKLEKADLLKAIQEQLIANVHSNDDYFEVIDFASDATITDRNGKVYFADKDGSVTLPTQPVQEFLLSGHVRVRPYKEKPIQNQAKSVDVEYTVQFTPLNPDDDFRPGLKDTKLLKTLAIGDTITSQELLAQAQSILNKNHPGYTIYERDSSIVTHDNDIFRTILPMDQEFTYRVKNREQAYRINKKCGLNEEINNTDLISEKYYVLKKGEKPYDPFDRSHLKLFTIKYVDVDTNELLKSEQLLTASERNLDFRDLYDPRDKAKLLYNNLDAFGIMDYTLTGKVEDNHDDTNRIITVYMGKRPEGENASYHLAYDKDRYTEEEREVYSYLRYTGTPIPDNPNDK
modifications: PEG (thiol-reactive methoxy-PEG maleimide) on Cys 258
B9: PEGylated SK K121C (SEQ ID NO 35) (other)
chain: IAGPEWLLDRPSVNNSQLVVSVAGTVEGTNQDISLKFFEIDLTSRPAHGGKTEQGLSPKSKPFATDSGAMSHKLEKADLLKAIQEQLIANVHSNDDYFEVIDFASDATITDRNGKVYFADCDGSVTLPTQPVQEFLLSGHVRVRPYKEKPIQNQAKSVDVEYTVQFTPLNPDDDFRPGLKDTKLLKTLAIGDTITSQELLAQAQSILNKNHPGYTIYERDSSIVTHDNDIFRTILPMDQEFTYRVKNREQAYRINKKSGLNEEINNTDLISEKYYVLKKGEKPYDPFDRSHLKLFTIKYVDVDTNELLKSEQLLTASERNLDFRDLYDPRDKAKLLYNNLDAFGIMDYTLTGKVEDNHDDTNRIITVYMGKRPEGENASYHLAYDKDRYTEEEREVYSYLRYTGTPIPDNPNDK
modifications: PEG (thiol-reactive methoxy-PEG maleimide) on Cys 121
B10: PEGylated SK D102C (SEQ ID NO 32) (other)
chain: IAGPEWLLDRPSVNNSQLVVSVAGTVEGTNQDISLKFFEIDLTSRPAHGGKTEQGLSPKSKPFATDSGAMSHKLEKADLLKAIQEQLIANVHSNDDYFEVICFASDATITDRNGKVYFADKDGSVTLPTQPVQEFLLSGHVRVRPYKEKPIQNQAKSVDVEYTVQFTPLNPDDDFRPGLKDTKLLKTLAIGDTITSQELLAQAQSILNKNHPGYTIYERDSSIVTHDNDIFRTILPMDQEFTYRVKNREQAYRINKKSGLNEEINNTDLISEKYYVLKKGEKPYDPFDRSHLKLFTIKYVDVDTNELLKSEQLLTASERNLDFRDLYDPRDKAKLLYNNLDAFGIMDYTLTGKVEDNHDDTNRIITVYMGKRPEGENASYHLAYDKDRYTEEEREVYSYLRYTGTPIPDNPNDK
modifications: PEG (thiol-reactive methoxy-PEG maleimide) on Cys 102
B11: PEGylated SK L260C (SEQ ID NO 50) (other)
chain: IAGPEWLLDRPSVNNSQLVVSVAGTVEGTNQDISLKFFEIDLTSRPAHGGKTEQGLSPKSKPFATDSGAMSHKLEKADLLKAIQEQLIANVHSNDDYFEVIDFASDATITDRNGKVYFADKDGSVTLPTQPVQEFLLSGHVRVRPYKEKPIQNQAKSVDVEYTVQFTPLNPDDDFRPGLKDTKLLKTLAIGDTITSQELLAQAQSILNKNHPGYTIYERDSSIVTHDNDIFRTILPMDQEFTYRVKNREQAYRINKKSGCNEEINNTDLISEKYYVLKKGEKPYDPFDRSHLKLFTIKYVDVDTNELLKSEQLLTASERNLDFRDLYDPRDKAKLLYNNLDAFGIMDYTLTGKVEDNHDDTNRIITVYMGKRPEGENASYHLAYDKDRYTEEEREVYSYLRYTGTPIPDNPNDK
modifications: PEG (thiol-reactive methoxy-PEG maleimide) on Cys 260
B12: PEGylated SK N-Cys (SEQ ID NO 489), Cys at N - 1 position in SK (other)
chain: CIAGPEWLLDRPSVNNSQLVVSVAGTVEGTNQDISLKFFEIDLTSRPAHGGKTEQGLSPKSKPFATDSGAMSHKLEKADLLKAIQEQLIANVHSNDDYFEVIDFASDATITDRNGKVYFADKDGSVTLPTQPVQEFLLSGHVRVRPYKEKPIQNQAKSVDVEYTVQFTPLNPDDDFRPGLKDTKLLKTLAIGDTITSQELLAQAQSILNKNHPGYTIYERDSSIVTHDNDIFRTILPMDQEFTYRVKNREQAYRINKKSGLNEEINNTDLISEKYYVLKKGEKPYDPFDRSHLKLFTIKYVDVDTNELLKSEQLLTASERNLDFRDLYDPRDKAKLLYNNLDAFGIMDYTLTGKVEDNHDDTNRIITVYMGKRPEGENASYHLAYDKDRYTEEEREVYSYLRYTGTPIPDNPNDK
modifications: PEG (thiol-reactive methoxy-PEG maleimide) on the Cys at N - 1 position
B13: PEGylated SK C-Cys (SEQ ID NO 490), Cys at C + 1 position in SK (other)
chain: IAGPEWLLDRPSVNNSQLVVSVAGTVEGTNQDISLKFFEIDLTSRPAHGGKTEQGLSPKSKPFATDSGAMSHKLEKADLLKAIQEQLIANVHSNDDYFEVIDFASDATITDRNGKVYFADKDGSVTLPTQPVQEFLLSGHVRVRPYKEKPIQNQAKSVDVEYTVQFTPLNPDDDFRPGLKDTKLLKTLAIGDTITSQELLAQAQSILNKNHPGYTIYERDSSIVTHDNDIFRTILPMDQEFTYRVKNREQAYRINKKSGLNEEINNTDLISEKYYVLKKGEKPYDPFDRSHLKLFTIKYVDVDTNELLKSEQLLTASERNLDFRDLYDPRDKAKLLYNNLDAFGIMDYTLTGKVEDNHDDTNRIITVYMGKRPEGENASYHLAYDKDRYTEEEREVYSYLRYTGTPIPDNPNDKC
modifications: PEG (thiol-reactive methoxy-PEG maleimide) on the Cys at C + 1 position

target: human plasminogen (HPG) (human, UniProt P00747 97-810); assay: cell-based or functional assay
Sequence (P00747 97-810): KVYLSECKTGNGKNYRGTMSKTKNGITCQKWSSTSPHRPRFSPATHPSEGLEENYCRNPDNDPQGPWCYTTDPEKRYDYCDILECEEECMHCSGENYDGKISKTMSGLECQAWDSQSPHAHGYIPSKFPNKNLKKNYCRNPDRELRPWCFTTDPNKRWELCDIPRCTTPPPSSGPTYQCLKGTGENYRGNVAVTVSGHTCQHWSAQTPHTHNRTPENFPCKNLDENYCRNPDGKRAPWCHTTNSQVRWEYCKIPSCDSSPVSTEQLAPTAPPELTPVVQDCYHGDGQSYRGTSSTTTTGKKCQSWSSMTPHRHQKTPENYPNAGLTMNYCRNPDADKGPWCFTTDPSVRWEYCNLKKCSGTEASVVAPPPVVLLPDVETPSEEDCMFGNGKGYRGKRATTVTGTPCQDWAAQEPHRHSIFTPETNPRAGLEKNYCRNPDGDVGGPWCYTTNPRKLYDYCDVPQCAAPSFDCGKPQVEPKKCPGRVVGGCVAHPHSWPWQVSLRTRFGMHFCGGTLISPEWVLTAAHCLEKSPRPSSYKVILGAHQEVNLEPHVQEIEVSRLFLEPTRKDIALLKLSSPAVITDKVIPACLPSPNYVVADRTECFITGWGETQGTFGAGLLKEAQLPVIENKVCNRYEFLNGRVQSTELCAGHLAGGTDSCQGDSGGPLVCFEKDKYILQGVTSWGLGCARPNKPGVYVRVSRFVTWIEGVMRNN

In order of falling “% Plasminogen activation” value:
1. B8  100%
2. B11  100%
3. B2  98%
4. B6  98%
5. B7  96%
6. B9  95%
7. B13  95%
8. B5  92%
9. B12  88%
10. B1  76%
11. B10  74%
12. B3  72%
13. B4  22%
